Results: the supplement of paper PMC11246515
± gives the standard deviation of the averaged measurements.

Assay: total protein half-life in vivo (active degradation + dilution); higher = more stable protein
[1] = E. coli NCM3722 delta-clpP delta-lon delta-hslV, growth: N-lim chemostat, doubling time 6 h
[2] = E. coli NCM3722 delta-clpP, growth: N-lim chemostat, doubling time 6 h
[3] = E. coli NCM3722 delta-hslV, growth: N-lim chemostat, doubling time 6 h
[4] = E. coli NCM3722 delta-lon, growth: N-lim chemostat, doubling time 6 h
[5] = E. coli NCM3722 delta-smpB, growth: N-lim chemostat, doubling time 6 h
[6] = wild type E. coli NCM3722, growth: C-lim chemostat, doubling time 3 h
[7] = wild type E. coli NCM3722, growth: C-lim chemostat, doubling time 6 h
[8] = wild type E. coli NCM3722, growth: C-lim chemostat, doubling time 12 h
[9] = wild type E. coli NCM3722, growth: N-lim chemostat, doubling time 6 h
[10] = wild type E. coli NCM3722, growth: N-lim chemostat, doubling time 12 h
[11] = wild type E. coli NCM3722, growth: P-lim chemostat, doubling time 6 h
[12] = wild type E. coli NCM3722, growth: P-lim chemostat, doubling time 12 h

Sequence	total protein half-life in vivo [1]	total protein half-life in vivo [2]	total protein half-life in vivo [3]	total protein half-life in vivo [4]	total protein half-life in vivo [5]	total protein half-life in vivo [6]	total protein half-life in vivo [7]	total protein half-life in vivo [8]	total protein half-life in vivo [9]	total protein half-life in vivo [10]	total protein half-life in vivo [11]	total protein half-life in vivo [12]
MHQVVCATTNPAKIQAILQAFHEIFGEGSCHIASVAVESGVPEQPFGSEETRAGARNRVANARRLLPEADFWVAIEAGIDGDSTFSWVVIENASQRGEARSATLPLPAVILEKVREGEALGPVMSRYTGIDEIGRKEGAIGVFTAGKLTRASVYHQAVILALSPFHNAVY	4.71 ± 0.46 h	3.828 ± 0.038 h	3.608 ± 0.012 h	4.01 ± 0.27 h	3.57 ± 0.16 h	2.81 ± 0.067 h	5.02 ± 0.2 h	8.17 ± 0.45 h	3.92 h	5.34 ± 0.057 h	5.38 ± 0.72 h	10.9 ± 2 h
MHRILAEKSVNITELRKNPAKYFIDQPVAVLSNNRPAGYLLSASAFEALMDMLAEQEEKKPIKARFRPSAARLEEITRRAEQYLNDMTDDDFNDFKE	6.12 ± 0.86 h	3.91 h	–	–	–	–	–	–	–	–	–	4.58 h
MHSTEVQAKPLFSWKALGWALLYFWFFSTLLQAIIYISGYSGTNGIRDSLLFSSLWLIPVFLFPKRIKIIAAVIGVVLWAASLAALCYYVIYGQEFSQSVLFVMFETNTNEASEYLSQYFSLKIVLIALAYTAVAVLLWTRLRPVYIPKPWRYVVSFALLYGLILHPIAMNTFIKNKPFEKTLDNLASRMEPAAPWQFLTGYYQYRQQLNSLTKLLNENNALPPLANFKDESGNEPRTLVLVIGESTQRGRMSLYGYPRETTPELDALHKTDPNLTVFNNVVTSRPYTIEILQQALTFANEKNPDLYLTQPSLMNMMKQAGYKTFWITNQQTMTARNTMLTVFSRQTDKQYYMNQQRTQSAREYDTNVLKPFQEVLNDPAPKKLIIVHLLGTHIKYKYRYPENQGKFDGNTDHVPPGLNAEELESYNDYDNANLYNDHVVASLIKDFKAANPNGFLVYFSDHGEEVYDTPPHKTQGRNEDNPTRHMYTIPFLLWTSEKWQATHPRDFSQDVDRKYSLAELIHTWSDLAGLSYDGYDPTRSVVNPQFKETTRWIGNPYKKNALIDYDTLPYGDQVGNQ [P0CB39]	6.57 ± 0.15 h	7 ± 0.21 h	–	6.52 ± 1.3 h	6.49 ± 0.29 h	3.504 ± 0.028 h	6.41 ± 0.11 h	13 ± 0.88 h	6.03 ± 0.069 h	13 ± 0.74 h	6.4 ± 0.18 h	13.1 ± 0.49 h
MHVKYLAGIVGAALLMAGCSSSNELSAAGQSVRIVDEQPGAECQLIGTATGKQSNWLSGQHGEEGGSMRGAANDLRNQAAAMGGNVIYGISSPSQGMLSSFVPTDSQIIGQVYKCPN [P0AF70]	6.05 h	6.18 ± 0.3 h	6.86 h	6.39 h	–	3.19 ± 0.049 h	5.95 ± 0.4 h	10.7 ± 0.76 h	7.12 h	12.9 ± 0.69 h	6.01 ± 0.24 h	11.7 ± 0.94 h
MHVTLVEINVHEDKVDEFIEVFRQNHLGSVQEEGNLRFDVLQDPEVNSRFYIYEAYKDEDAVAFHKTTPHYKTCVAKLESLMTGPRKKRLFNGLMP	4.55 ± 0.72 h	2.71 h	> 8 h	3 ± 0.2 h	–	2.49 ± 0.49 h	3.66 ± 0.24 h	3.93 ± 0.26 h	2.69 h	4.86 h	–	–
MHYMKWIYPRRLRNQMILMAILMVIVPTLTIGYIVETEGRSAVLSEKEKKLSAVVNLLNQALGDRYDLYIDLPREERIRALNAELAPITENITHAFPGIGAGYYNKMLDAIITYAPSALYQNNVGVTIAADHPGREVMRTNTPLVYSGRQVRGDILNSMLPIERNGEILGYIWANELTEDIRRQAWKMDVRIIIVLTAGLLISLLLIVLFSRRLSANIDIITDGLSTLAQNIPTRLPQLPGEMGQISQSVNNLAQALRETRTLNDLIIENAADGVIAIDRQGDVTTMNPAAEVITGYQRHELVGQPYSMLFDNTQFYSPVLDTLEHGTEHVALEISFPGRDRTIELSVTTSRIHNTHGEMIGALVIFSDLTARKETQRRMAQAERLATLGELMAGVAHEVRNPLTAIRGYVQILRQQTSDPIHQEYLSVVLKEIDSINKVIQQLLEFSRPRHSQWQQVSLNALVEETLVLVQTAGVQARVDFISELDNELSPINADRELLKQVLLNILINAVQAISARGKIRIQTWQYSDSQQAISIEDNGCGIDLSLQKKIFDPFFTTKASGTGLGLALSQRIINAHQGDIRVASLPGYGATFTLILPINPQGNQTV	6.89 h	–	–	–	–	3.09 ± 0.28 h	6.53 h	–	–	–	–	–
MHYQPKQDLLNDRIILVTGASDGIGREAAMTYARYGATVILLGRNEEKLRQVASHINEETGRQPQWFILDLLTCTSENCQQLAQRIAVNYPRLDGVLHNAGLLGDVCPMSEQNPQVWQDVMQVNVNATFMLTQALLPLLLKSDAGSLVFTSSSVGRQGRANWGAYAASKFATEGMMQVLADEYQQRLRVNCINPGGTRTAMRASAFPTEDPQKLKTPADIMPLYLWLMGDDSRRKTGMTFDAQPGRKPGISQ	4.5 ± 0.46 h	4.29 ± 0.28 h	3.87 ± 0.11 h	4.56 ± 0.44 h	3.62 ± 0.049 h	2.99 ± 0.043 h	5.77 ± 0.044 h	9.39 ± 1.9 h	3.68 ± 0.25 h	5.92 ± 0.058 h	6.22 ± 0.24 h	11.3 ± 0.24 h
MIAIADILQAGEKLTAVAPFLAGIQNEEQYTQALELVDHLLLNDPENPLLDLVCAKITAWEESAPEFAEFNAMAQAMPGGIAVIRTLMDQYGLTLSDLPEIGSKSMVSRVLSGKRKLTLEHAKKLATRFGISPALFID	4.71 h	1.51 h	–	–	–	–	–	–	–	–	–	1.85 h
MIALIQRVTRASVTVEGEVTGEIGAGLLVLLGVEKDDDEQKANRLCERVLGYRIFSDAEGKMNLNVQQAGGSVLVVSQFTLAADTERGMRPSFSKGASPDRAEALYDYFVERCRQQEMNTQTGRFAADMQVSLVNDGPVTFWLQV [P0A6M4]	4.67 ± 0.29 h	3.81 ± 0.19 h	3.859 ± 0.026 h	4.26 ± 0.52 h	4.06 ± 0.17 h	–	5.48 ± 0.15 h	10 ± 0.87 h	3.84 ± 0.29 h	6.66 ± 0.43 h	5.52 ± 0.24 h	11 ± 0.22 h
MIASKFGIGQQVRHSLLGYLGVVVDIDPVYSLSEPSPDELAVNDELRAAPWYHVVMEDDNGLPVHTYLAEAQLSSELQDEHPEQPSMDELAQTIRKQLQAPRLRN [P0AB20]	3.23 ± 0.48 h	–	–	1.99 ± 0.27 h	–	–	–	–	–	–	–	–
